Experimental data as given in US20250018037A1 (SEOUL NATIONAL UNIVERSITY R AND DB FOUNDATION, published 2025).

Target: T1, Recombinant human CD40-Fc (1493-CDB, R&D systems) (human, UniProt P25942 21-193)
T1 construct: Bought protein; also called human CD40 recombinant proteins
Assay: ELISA, human CD40-Fc coated at 2.5 ug/ml, serial dilutions 0.0001 to 1000 nM, anti-human Ck-HRP, absorbance 450 nm
Experimental: FIG. 13A: Recombinant human CD40-Fc (2.5 μg/ml) was coated in ELISA plate and the serial diluents of 2B1-Ck, 2E1-Ck and irrelevant scFv antibody-Ck were loaded. The bound scFv-Cκs were detected by a secondary anti-human Cκ-HRP followed by chromogenic reaction with TMB substrate. The absorbance was measured at 450 nm. […] FIG. 13B: Raji, a CD40-expressing human B lymphoma cell line, was stained with 2B1-Ck, 2E1-Ck or the irrelevant scFv-Cκ (1 μg/1×10⁵ cells), and then stained with secondary anti-human Ck-APC. The binding intensity of the scFv-Cκs were analyzed by flow cytometry. The numbers are mean fluorescence intensities (MFIs) of the binding.
White leghorn chickens were immunized four times with recombinant mouse CD40 (50324-M08H, Sino Biological, China) or human CD40 (10774-H08H, Sino Biological) protein. Total RNA from the bursa of Fabricius, spleen, and bone marrow was isolated using TRIzol reagent (Invitrogen, USA), and cDNA was synthesized using a SuperScript III first-strand cDNA synthesis kit with oligo (dT) primers (Invitrogen) according to the manufacturer's instructions. The scFv phage-display libraries were constructed from the cDNAs as described previously⁵¹. […] The binding of the scFv-Cκs was measured with the secondary antibody (anti-human Cκ-HRP; AP502P, Sigma-Aldrich, USA).

T1 sequence (P25942 21-193 limits assumed): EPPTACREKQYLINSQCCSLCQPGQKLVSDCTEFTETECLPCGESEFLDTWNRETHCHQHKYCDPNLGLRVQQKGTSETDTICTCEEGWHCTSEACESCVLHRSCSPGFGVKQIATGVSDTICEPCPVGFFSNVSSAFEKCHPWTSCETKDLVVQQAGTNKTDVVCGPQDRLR

EC50 [nM] | Binder
0.365 | 2B1-Cκ (anti-human CD40 scFv clone 2B1 fused with human Cκ) (scFv, also called 2B1-Ck; free 2B1) scFv: QAALTQPSSVSANPGETVKITCSGGDSYAGSYYYGWFQQKAPGSAPVTVIYYNDKRPSDIPSRFSGSTSGSTSTLTITGVQAEDEAVYYCGSIDTSSGTGIFGAGTTLTVLGQSSRSSGGGGSSGGGGSAVTLDESGGGLQTPGGALSLVCKGSGFTFSSYQMFWVRQAPGKGLEYVAEISGSGLSTWYAPAVKGRATISRDNGQSTVRLQLNNLRAEDTGTYYCAKAAGSCGVGTCAGGIVDGIDAWGHGTEVIVSSTSGQAGQRTVAAPSVFIFPPSDEQLKSGTASVVCLLNNFYPREAKVQWKVDNALQSGNSQESVTEQDSKDSTYSLSSTLTLSKADYEKHKVYACEVTHQGLSSPVTKSFNRGES
1.06 | 2E1-Cκ (anti-human CD40 scFv clone 2E1 fused with human Cκ) (scFv, also called 2E1-Ck) scFv: QAALTQPSSVSANPGETVKITCSGSSSSYYGWYQQKAPGSAPVTLIYANDKRPSDIPSRFSGSKSGSTHTLTITGVQADDEAVYFCGSADSTDSGFGAGTTLTVLGQSSRSSGGGGSSGGGGSAVTLDESGGGLQTPGGALSLVCKASGFSFSSYSMHWVRQAPGKGLEFVAAISSDGSRYTHYGPAVKGRATISRDNGQSTVRLQLNNLRPEDTGTYYCAKTSNTWTWNTGWIDAWGHGTEVIVSSTSGQAGQRTVAAPSVFIFPPSDEQLKSGTASVVCLLNNFYPREAKVQWKVDNALQSGNSQESVTEQDSKDSTYSLSSTLTLSKADYEKHKVYACEVTHQGLSSPVTKSFNRGES
